{"source": "patent US20230265407A1", "about": "“HUMAN RECOMBINANT ACE2-FC MUTANTS THAT DECOUPLE ANTI-SARS-COV-2 ACTIVITY FROM CARD[…]” (Northwestern University, priority 2020, published 2023)", "key": {"ACE2": {"target": "ACE2 (Homo sapiens, UniProt Q9BYF1)", "sequence (Q9BYF1 18-805)": "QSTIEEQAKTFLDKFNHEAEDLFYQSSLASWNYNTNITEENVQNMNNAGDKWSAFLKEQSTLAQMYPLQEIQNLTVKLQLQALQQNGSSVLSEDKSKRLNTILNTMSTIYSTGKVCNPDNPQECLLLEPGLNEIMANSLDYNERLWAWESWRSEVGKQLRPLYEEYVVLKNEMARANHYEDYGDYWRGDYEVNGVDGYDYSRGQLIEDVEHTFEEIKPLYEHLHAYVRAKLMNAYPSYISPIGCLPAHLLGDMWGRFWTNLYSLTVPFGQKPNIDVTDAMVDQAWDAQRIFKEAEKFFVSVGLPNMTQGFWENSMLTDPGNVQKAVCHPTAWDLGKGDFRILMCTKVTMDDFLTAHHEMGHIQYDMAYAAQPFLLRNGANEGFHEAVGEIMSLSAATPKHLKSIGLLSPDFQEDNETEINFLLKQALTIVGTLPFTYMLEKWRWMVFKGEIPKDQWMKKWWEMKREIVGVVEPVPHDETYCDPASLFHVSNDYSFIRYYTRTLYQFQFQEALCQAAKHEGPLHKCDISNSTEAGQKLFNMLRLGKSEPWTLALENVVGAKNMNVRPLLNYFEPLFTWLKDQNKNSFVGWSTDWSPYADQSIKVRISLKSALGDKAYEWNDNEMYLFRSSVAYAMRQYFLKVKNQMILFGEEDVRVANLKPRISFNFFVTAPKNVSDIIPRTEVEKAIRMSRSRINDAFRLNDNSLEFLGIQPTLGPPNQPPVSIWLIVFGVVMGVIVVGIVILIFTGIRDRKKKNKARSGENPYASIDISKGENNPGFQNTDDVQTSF", "settings": "cited from earlier work"}, "[1]": {"target": "RBD of SARS-CoV-2 spike protein (Severe acute respiratory syndrome coronavirus 2, UniProt P0DTC2)"}, "[2]": {"settings": "mice, up to two months; cited from earlier work"}, "[3]": {"settings": "degradation of AngII by the fusion; cited from earlier work"}, "[4]": {"system": "Spike (SARS-CoV-2) pseudotyped lentivirus", "format": "cell-based"}, "[5]": {"system": "Mca-APK(Dnp) surrogate fluorogenic substrate", "settings": "20 min reaction, compared with wild-type ACE2-Fc", "procedure": "ACE2 peptidase activity measured using surrogate Mca-APK(Dnp). ACE2-Fc peptidase activity assay using surrogate fluorogenic substrate Mca-APK(Dnp) (Enzo Life Sciences, Farmingdale, N.Y.) was performed in black microtiter plates. The reaction buffer contained 50 mM 4-morpholineethanesulfonic acid, pH=6.5, 300 mM NaCl, 10 μM ZnC12, 0.01% Triton X-100 and 20 μM of Mca-APK(Dnp). The total reaction volume was 100 μL at room temperature and the duration of the reactions were 20 min. Peptidase activities were calculated as fluorescence intensity at 320 nm excitation and 420 nm emission wavelength.\nIn parallel, we performed ACE2 activity assays using either Mca-APK(Dnp) or synthetic Ang II peptide as substrate together with individual variants of ACE2-Fc as the enzyme. By using Mca-APK(Dnp), fluorescence signals at 328 nm excitation and 393 nm emission were recorded."}, "AngII": {"system": "AngII", "experiment": "Phenylalanine Assay: ACE2 peptidase activity with AngII as substrate", "settings": "phenylalanine hydrolysis, 20 min, 37° C.", "procedure": "(§1) ACE2 peptidase activity measured using physiological substrates of AngII and apelin-13. […] It involves two coupled reactions, hydrolysis of the C-terminus phenylalanine residues from the substrates by ACE2 catalysis and the measurement of free amino acid phenylalanine using yeast enzyme of phenylalanine ammonia lyase (PAL) in a colorimetric assay (supplementary Figure S2).\n(§2) The reactions were carried out using indicated concentrations of ACE2-Fc proteins together with either AngII or apelin-13 at indicated concentrations in reaction buffer containing 20 mM Tris-HCl, pH=7.4, 136 mM NaCl and 10 μM ZnC12. The first reaction was proceeded at 37° C. after 20 min before stopped by 80° C. heat inactivation for 5 min. The second reaction used a phenylalanine detection kit (Sigma-Aldrich, St. Louis, Mo.). 1 μL enzyme mix and 1 μL developer from the kit were added to the above reaction, which was allowed to proceed for 20 min at room temperature. Fluorescence intensity was measured at 535 nm excitation and 585 nm emission wavelength, and all reactions were performed in triplicate.\n(§3) We performed Mca-APK(Dnp) measurements, alongside phenylalanine hydrolysis assays using AngII and apelin-13 as substrates to determine the enzymatic activities of the ACE2-Fc variants (FIG. 2A-C). […] The first method used an excess amount of the enzyme (100 ng) in reactions with varying concentrations of the three substrates. This would potentially detect low partial activity of enzymes."}, "apelin-13 [6]": {"system": "apelin-13", "experiment": "Phenylalanine Assay: ACE2 peptidase activity with apelin-13 as substrate", "settings": "phenylalanine hydrolysis, 20 min, 37° C.", "procedure": "as §1, §2, §3"}, "Ang II": {"system": "Ang II", "experiment": "Mass spectrometry analysis of peptides generated from Ang II by ACE2-Fc", "settings": "Ang II peptide as substrate"}, "Mca-APK(Dnp)": {"system": "Mca-APK(Dnp)", "settings": "cited from earlier work"}, "angiotensin I": {"target": "angiotensin I (Homo sapiens, UniProt Q9BYF1)", "sequence (Q9BYF1 18-805)": "as above", "settings": "cited from earlier work"}, "angiotensin II": {"target": "angiotensin II (Homo sapiens, UniProt Q9BYF1)", "sequence (Q9BYF1 18-805)": "as above", "settings": "cited from earlier work"}, "apelin-13 [7]": {"target": "apelin-13 (Homo sapiens, UniProt Q9BYF1)", "sequence (Q9BYF1 18-805)": "as above", "settings": "cited from earlier work"}, "dynorphin-13": {"target": "dynorphin-13 (Homo sapiens, UniProt Q9BYF1)", "sequence (Q9BYF1 18-805)": "as above", "settings": "cited from earlier work"}}, "note": "“Also recorded” adds a separate entry of the source. Like-named read-outs stand apart in the source and are kept apart here."}
{"compound": "CC(C)C[C@H](N[C@@H](Cc1cncn1Cc1cc(Cl)cc(Cl)c1)C(=O)O)C(=O)O", "note": "[MLN-4760]", "values": [{"measurement": "inhibition of ACE2", "setting": "ACE2", "result": "inhibited"}]}
{"compound": "wild-type ACE2-Fc: ectodomain of human ACE2 fused to the N-terminus of Fc domain of human IgG1; forms a dimer", "values": [{"measurement": "binding to SARS-CoV-2 spike RBD", "setting": "[1]", "result": "highest binding affinity"}, {"measurement": "tolerability of repeated doses", "setting": "[2]", "result": "well tolerated"}, {"measurement": "blood pressure control", "setting": "[3]", "result": "blood pressure control for up to two weeks"}]}
{"compound": "E402A: ACE2-Fc fusion with single alanine substitution of Zn2+-binding residue Glu402; loss-of-activity variant", "values": [{"measurement": "IC50 of pseudotyped viral transduction", "setting": "[4]", "result": 0.25, "unit": "µg/mL"}, {"measurement": "inhibition of pseudotyped viral transduction (in words)", "setting": "[4]", "result": "could suppress the transduction of a pseudotyped virus"}, {"measurement": "peptidase activity toward surrogate substrate Mca-APK(Dnp)", "setting": "[5]", "result": "completely lost their enzymatic activity"}, {"measurement": "peptidase activity toward surrogate substrate Mca-APK(Dnp)", "setting": "[5]; listed as Glu402Ala", "result": "completely lack of peptidase activity"}, {"measurement": "peptidase activity toward AngII (Phe release)", "setting": "AngII", "result": "inactivate ACE2; also recorded: completely lost their enzymatic activity"}, {"measurement": "peptidase activity toward AngII (Phe release)", "setting": "AngII; listed as Glu402Ala", "result": "completely lack of peptidase activity"}, {"measurement": "peptidase activity toward apelin-13 (Phe release)", "setting": "apelin-13 [6]", "result": "inactivate ACE2; also recorded: completely lost their enzymatic activity"}, {"measurement": "peptidase activity toward apelin-13 (Phe release)", "setting": "apelin-13 [6]; listed as Glu402Ala", "result": "completely lack of peptidase activity"}]}
{"compound": "H345A: ACE2-Fc fusion with single alanine substitution of His345", "values": [{"measurement": "generation of Ang 1-7 from Ang II by mass spectrometry", "setting": "Ang II", "result": "full activity; also recorded: remained fully active"}, {"measurement": "generation of Ang 1-7 from Ang II by mass spectrometry", "setting": "Ang II; listed as ACE2-Fc H345A", "result": "full activity"}]}
{"compound": "O=C(O)CN(CCN(CC(=O)O)CC(=O)O)CC(=O)O", "note": "[EDTA]", "values": [{"measurement": "inhibition of ACE2", "setting": "ACE2", "result": "inhibited"}]}
{"compound": "C[C@H](CS)C(=O)N1CCC[C@H]1C(=O)O", "note": "[captopril]", "values": [{"measurement": "inhibition of ACE2", "setting": "ACE2", "result": "not"}]}
{"compound": "R273A", "values": [{"measurement": "IC50 of pseudotyped viral transduction", "setting": "[4]", "result": 0.19, "unit": "µg/mL"}, {"measurement": "inhibition of pseudotyped viral transduction (in words)", "setting": "[4]", "result": "could suppress the transduction of a pseudotyped virus"}, {"measurement": "generation of Ang 1-7 from Ang II by mass spectrometry", "setting": "Ang II", "result": "loss of activity"}, {"measurement": "generation of Ang 1-7 from Ang II by mass spectrometry", "setting": "Ang II; listed as ACE2-Fc R273A", "result": "no Ang 1-7 signal was observed"}]}
{"compound": "H374N/H378N: Glasgow et al. ACE2 trap with double mutations of the Zn2+-binding residues", "values": [{"measurement": "activity against Mca-APK(Dnp) (Glasgow et al.)", "setting": "Mca-APK(Dnp)", "result": "loss-of-activity"}]}
{"compound": "H345L: Glasgow et al. ACE2 trap with H345L mutation at the catalytic center", "values": [{"measurement": "activity against Mca-APK(Dnp) (Glasgow et al.)", "setting": "Mca-APK(Dnp)", "result": "loss-of-activity"}]}
{"compound": "H378A: ACE2-Fc fusion with single alanine substitution of Zn2+-binding residue His378; loss-of-activity variant", "values": [{"measurement": "IC50 of pseudotyped viral transduction", "setting": "[4]", "result": 0.16, "unit": "µg/mL"}, {"measurement": "inhibition of pseudotyped viral transduction (in words)", "setting": "[4]", "result": "could suppress the transduction of a pseudotyped virus"}, {"measurement": "peptidase activity toward surrogate substrate Mca-APK(Dnp)", "setting": "[5]", "result": "completely lost their enzymatic activity"}, {"measurement": "peptidase activity toward surrogate substrate Mca-APK(Dnp)", "setting": "[5]; listed as His378Ala", "result": "completely lack of peptidase activity"}, {"measurement": "peptidase activity toward AngII (Phe release)", "setting": "AngII", "result": "inactivate ACE2; also recorded: completely lost their enzymatic activity"}, {"measurement": "peptidase activity toward AngII (Phe release)", "setting": "AngII; listed as His378Ala", "result": "completely lack of peptidase activity"}, {"measurement": "peptidase activity toward apelin-13 (Phe release)", "setting": "apelin-13 [6]", "result": "inactivate ACE2; also recorded: completely lost their enzymatic activity"}, {"measurement": "peptidase activity toward apelin-13 (Phe release)", "setting": "apelin-13 [6]; listed as His378Ala", "result": "completely lack of peptidase activity"}]}
{"compound": "NCCCC[C@H](N[C@@H](CCc1ccccc1)C(=O)O)C(=O)N1CCC[C@H]1C(=O)O", "note": "[linosipril]", "values": [{"measurement": "inhibition of ACE2", "setting": "ACE2", "result": "not"}]}
{"compound": "angiotensin converting enzyme 2 [ACE2]", "values": [{"measurement": "Km", "setting": "angiotensin I", "result": 6.9, "unit": "µM"}, {"measurement": "Km", "setting": "angiotensin II", "result": 2, "unit": "µM"}, {"measurement": "Km", "setting": "apelin-13 [7]", "result": 6.8, "unit": "µM"}, {"measurement": "Km", "setting": "dynorphin-13", "result": 5.5, "unit": "µM"}]}
